Patent publication US20220249597A1 (Johns Hopkins, published 2022)
Each block holds one binder with its values, some of them ahead of it.

Target: T1, endogenous MIF (macrophage migration inhibitory factor) in HeLa cell lysates (human, UniProt P14174 2-115)
T1 construct: Endogenous protein in lysate, detected by western blot with an anti-MIF antibody; also called MMIF; PAAN
Assay: pull-down of AIF mutants, western blot with anti-MIF antibody

T1 sequence (P14174 2-115 limits assumed): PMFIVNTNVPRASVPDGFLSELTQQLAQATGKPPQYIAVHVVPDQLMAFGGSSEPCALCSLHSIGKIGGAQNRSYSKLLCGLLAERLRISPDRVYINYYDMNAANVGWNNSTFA

binding result: no binding
B1: AIFA567-592 (full length AIF with aa567-592 deleted) (other, mouse, UniProt Q9Z0X1 1-612, looked up)
chain: MFRCGGLAGAFKQKLVPLVRTVYVQRPKQRNRLPGNLFQQWRVPLELQMARQMASSGSSGGKMDNSVLVLIVGLSTIGAGAYAYKTIKEDQKRYNERVMGLGLSPEEKQRRAIASATEGGSVPQIRAPSHVPFLLIGGGTAAFAAARSIRARDPGARVLIVSEDPELPYMRPPLSKELWFSDDPNVTKTLQFRQWNGKERSIYFQPPSFYVSAQDLPNIENGGVAVLTGKKVVHLDVRGNMVKLNDGSQITFEKCLIATGGTPRSLSAIDRAGAEVKSRTTLFRKIGDFRALEKISREVKSITVIGGGFLGSELACALGRKSQASGIEVIQLFPEKGNMGKILPQYLSNWTMEKVKREGVKVMPNAIVQSVGVSGGRLLIKLKDGRKVETDHIVTAVGLEPNVELAKTGGLEIDSDFGGFRVNAELQARSNIWVAGDAACFYDIKLGRRRVEHHDHAVVSGRLAGENMTGAAKPYWHQSMFWSDLGPDVGYEAIGLVDSSLPTVGVFAKATAQDNPKSATEQSGTGIRSESETESEASEITIPPSAPAVPQVPVEGEDYGKGVIFYDGEQHEDLNEVAKLFNIHED

binding result: no binding
B2: AIFm567-592 (full length AIF with aa567-592 mutated into polyalanines) (other, mouse, UniProt Q9Z0X1 1-612, looked up)
chain: MFRCGGLAGAFKQKLVPLVRTVYVQRPKQRNRLPGNLFQQWRVPLELQMARQMASSGSSGGKMDNSVLVLIVGLSTIGAGAYAYKTIKEDQKRYNERVMGLGLSPEEKQRRAIASATEGGSVPQIRAPSHVPFLLIGGGTAAFAAARSIRARDPGARVLIVSEDPELPYMRPPLSKELWFSDDPNVTKTLQFRQWNGKERSIYFQPPSFYVSAQDLPNIENGGVAVLTGKKVVHLDVRGNMVKLNDGSQITFEKCLIATGGTPRSLSAIDRAGAEVKSRTTLFRKIGDFRALEKISREVKSITVIGGGFLGSELACALGRKSQASGIEVIQLFPEKGNMGKILPQYLSNWTMEKVKREGVKVMPNAIVQSVGVSGGRLLIKLKDGRKVETDHIVTAVGLEPNVELAKTGGLEIDSDFGGFRVNAELQARSNIWVAGDAACFYDIKLGRRRVEHHDHAVVSGRLAGENMTGAAKPYWHQSMFWSDLGPDVGYEAIGLVDSSLPTVGVFAKATAQDNPKSATEQSGTGIRSESETESEASEITIPPSAPAVPQVPVEGEDYGKGVIFYAAAAAAAAAAAAAAAAAAAAAAAAAADGEQHEDLNEVAKLFNIHED
